Experimental data reported in patent publication US20150344544A1 (ACADEMIA SINICA, published 2015).
Blank lines part the entries; values can stand above or below the binder they belong to.

Experiments:
C1q [1] = biological target: T1, C1q (UniProt P02745 23-245; P02746 28-253; P02747 29-245); test: ELISA
T1 construct: Complement component C1q used in ELISA; source not described

FcγRIIb = biological target: T2, FcγRIIb (UniProt P31994 43-217, limits assumed); test: ELISA
T2 construct: Used in ELISA; construct not described
T2 sequence (looked up): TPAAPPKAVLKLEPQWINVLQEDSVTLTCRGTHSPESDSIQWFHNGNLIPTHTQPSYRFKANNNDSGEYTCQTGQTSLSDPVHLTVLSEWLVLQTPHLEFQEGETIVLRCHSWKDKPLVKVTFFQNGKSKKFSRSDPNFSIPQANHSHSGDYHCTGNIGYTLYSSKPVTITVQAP

FcγRIIIa [2] = biological target: T3, FcγRIIIa (UniProt P08637 17-208, limits assumed); test: ELISA
T3 construct: Soluble receptor used in ELISA and SPR; source and construct not described; also called FcRIIIA
T3 sequence (P08637 17-208 limits assumed): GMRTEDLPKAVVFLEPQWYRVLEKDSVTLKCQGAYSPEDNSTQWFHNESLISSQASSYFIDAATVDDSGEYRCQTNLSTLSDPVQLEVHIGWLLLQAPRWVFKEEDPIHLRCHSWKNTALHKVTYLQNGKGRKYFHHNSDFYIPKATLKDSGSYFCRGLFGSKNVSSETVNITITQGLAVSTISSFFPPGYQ

FcγRIIa = biological target: T4, FcγRIIa (UniProt P12318 34-217, limits assumed); test: ELISA
T4 construct: Used in ELISA; construct not described
T4 sequence (looked up): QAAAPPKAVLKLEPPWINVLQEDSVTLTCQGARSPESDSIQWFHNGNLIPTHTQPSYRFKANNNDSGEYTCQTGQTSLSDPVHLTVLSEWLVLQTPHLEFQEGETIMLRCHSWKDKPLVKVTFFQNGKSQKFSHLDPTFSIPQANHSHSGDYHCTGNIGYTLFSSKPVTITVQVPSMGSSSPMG

FcγRI = biological target: T5, FcγRI (UniProt P12314 16-288, limits assumed); test: ELISA
T5 construct: Used in ELISA; construct not described
T5 sequence (P12314 16-288 limits assumed): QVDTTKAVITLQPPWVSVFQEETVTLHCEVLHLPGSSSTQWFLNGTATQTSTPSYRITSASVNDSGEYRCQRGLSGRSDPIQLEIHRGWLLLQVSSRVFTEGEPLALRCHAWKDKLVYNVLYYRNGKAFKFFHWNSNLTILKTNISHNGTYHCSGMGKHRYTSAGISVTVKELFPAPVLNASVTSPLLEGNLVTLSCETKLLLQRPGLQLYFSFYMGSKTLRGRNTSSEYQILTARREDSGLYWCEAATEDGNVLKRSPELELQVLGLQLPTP

FcγRIIIa [3] = biological target: T3, FcγRIIIa; test: SPR
FcγRIIIa [4] = biological target: T3, FcγRIIIa; test: SPR; commercial Rituxan, not glycoengineered (reference)
C1q [5] = biological target: T1, C1q; test: cell-based or functional assay
FcγRIIIa [6] = biological target: T3, FcγRIIIa; test: cell-based or functional assay
FcγRIIIa [7] = biological target: T3, FcγRIIIa; test: SPR, antibody captured with Human Fab capture kit, single cycle kinetics
Text: Analyzed antibodies were captured by means of the Human Fab capture kit and detected with the single cycle kinetic method.

T1 sequence (P02745 23-245 limits assumed, chain 1 of 3): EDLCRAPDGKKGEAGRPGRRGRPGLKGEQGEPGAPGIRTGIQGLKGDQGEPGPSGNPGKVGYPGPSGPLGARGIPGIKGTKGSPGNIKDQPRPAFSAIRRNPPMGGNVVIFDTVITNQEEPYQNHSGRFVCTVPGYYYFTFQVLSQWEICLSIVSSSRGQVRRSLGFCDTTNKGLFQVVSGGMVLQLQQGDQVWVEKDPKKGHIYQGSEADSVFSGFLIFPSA
T1 sequence (P02746 28-253 limits assumed, chain 2 of 3): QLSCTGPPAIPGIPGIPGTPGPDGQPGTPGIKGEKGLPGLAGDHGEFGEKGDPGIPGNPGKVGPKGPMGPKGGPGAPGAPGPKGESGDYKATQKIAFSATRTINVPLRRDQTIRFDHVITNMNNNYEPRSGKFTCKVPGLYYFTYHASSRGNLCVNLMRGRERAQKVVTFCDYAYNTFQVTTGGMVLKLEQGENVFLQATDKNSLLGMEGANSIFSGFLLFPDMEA
T1 sequence (P02747 29-245 limits assumed, chain 3 of 3): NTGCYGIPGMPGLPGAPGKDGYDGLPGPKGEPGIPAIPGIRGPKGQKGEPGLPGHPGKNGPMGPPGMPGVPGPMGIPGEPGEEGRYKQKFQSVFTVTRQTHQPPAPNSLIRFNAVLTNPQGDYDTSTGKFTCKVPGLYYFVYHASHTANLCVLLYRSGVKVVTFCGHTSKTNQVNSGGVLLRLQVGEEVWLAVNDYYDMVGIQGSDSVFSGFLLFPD

EC50 (C1q [1]): 6.5 nM
EC50 (FcγRIIb): 0.51 nM
EC50 (FcγRIIIa [2]): 6.2 to 9 nM
EC50 (FcγRIIa): 5.4 nM
EC50 (FcγRI): 0.19 nM
Kd (FcγRIIIa [3]): 100 nM
Kd (FcγRIIIa [4]): ≤ 300 nM
EC50 (ug/ml), CDC assay on Ramos cells, FACS (C1q [5]): 0.033 µg/mL
EC50 (ug/ml), PBMC mediated ADCC on Raji cells (FcγRIIIa [6]): 0.319 µg/mL
EC50 (ug/ml), PBMC mediated ADCC on Ramos cells (FcγRIIIa [6]): 4.38 µg/mL
EC50 (ug/ml), PBMC mediated ADCC on SKW6.4 cells (FcγRIIIa [6]): 2.07 µg/mL
B1: Rituximab (antibody, human IgG1, kappa)
heavy: not shown
light: QIVLSQSPAILSASPGEKVTMTCRASSSVSYIHWFQQKPGSSPKPWIYATSNLASGVPVRFSGSGSGTSYSLTISRVEAEDAATYYCQQWTSNPPTFGGGTKLEIKRTVAAPSVFIFPPSDEQLKSGTASVVCLLNNFYPREAKVQWKVDNALQSGNSQESVTEQDSKDSTYSLSSTLTLSKADYEKHKVYACEVTHQGLSSPVTKSFNRGEC
notes: Commercial IgG1 with its native heterogeneous Fc glycans; also called Rituxan; Roche-Rituximab

EC50 (FcγRIIb): 0.53 nM
EC50 (FcγRIIa): 16.5 nM
EC50 (ug/ml), CDC assay on Ramos cells, FACS (C1q [5]): 0.086 µg/mL
EC50 (ug/ml), PBMC mediated ADCC on Raji cells (FcγRIIIa [6]): 0.086 µg/mL
EC50 (ug/ml), PBMC mediated ADCC on Ramos cells (FcγRIIIa [6]): 1.45 µg/mL
EC50 (ug/ml), PBMC mediated ADCC on SKW6.4 cells (FcγRIIIa [6]): 1.22 µg/mL
B2: 2,3-NSCT-Rituximab (antibody, human IgG1, kappa)
heavy: not shown
light: B1 light
modifications: homogeneous afucosylated Fc N-glycan (Asn-297), 2,3-sialylated: Sia2(α2-3)Gal2GlcNAc2Man3GlcNAc2

Kd (FcγRIIIa [7]): 62.7 nM
B3: G7 glycoengineered Rituximab (antibody, human IgG1, kappa)
heavy: not shown
light: B1 light
modifications: homogeneous afucosylated Fc N-glycan (Asn-297): Man3GlcNAc2
notes: IgG1; also called anti-CD20 GAb111

Kd (FcγRIIIa [3]): 7 to 30 nM
Kd (FcγRIIIa [7]): 27.2 nM
B4: G6 glycoengineered Rituximab (antibody, human IgG1, kappa)
heavy: not shown
light: B1 light
modifications: homogeneous afucosylated Fc N-glycan (Asn-297): GalGlcNAc2Man3GlcNAc2
notes: IgG1; also called anti-CD20 GAb106

EC50 (C1q [1]): 8 nM
EC50 (FcγRIIb): 0.28 nM
EC50 (FcγRIIIa [2]): 0.24 to 0.27 nM
EC50 (FcγRIIa): 3 nM
EC50 (FcγRI): 0.23 nM
EC50 (ug/ml), CDC assay on Ramos cells, FACS (C1q [5]): 0.039 µg/mL
EC50 (ug/ml), PBMC mediated ADCC on Raji cells (FcγRIIIa [6]): 0.022 µg/mL
EC50 (ug/ml), PBMC mediated ADCC on Ramos cells (FcγRIIIa [6]): 0.377 µg/mL
EC50 (ug/ml), PBMC mediated ADCC on SKW6.4 cells (FcγRIIIa [6]): 0.276 µg/mL
Kd (FcγRIIIa [7]): 8.28 nM
B5: 2,6-NSCT-Rituximab (antibody, human IgG1, kappa)
heavy: not shown
light: B1 light
modifications: homogeneous afucosylated Fc N-glycan (Asn-297): Sia2(α2-6)Gal2GlcNAc2Man3GlcNAc2
notes: also called anti-CD20 GAb101

EC50 (FcγRIIb): 0.32 nM
EC50 (FcγRIIIa [2]): 36.3 nM
EC50 (FcγRI): 0.85 nM
B6: mono-GlcNAc Rituximab (antibody, human IgG1, kappa)
heavy: not shown
light: B1 light
modifications: single GlcNAc (defucosylated) at the Fc N-glycosylation site (Asn-297)
notes: IgG1; made from Rituximab with fucosidase BfFucH and an endoglycosidase; also called N-Rituximab

Kd (FcγRIIIa [7]): 120 nM
B7: G8 glycoengineered Rituximab (antibody, human IgG1, kappa)
heavy: not shown
light: B1 light
modifications: homogeneous afucosylated Fc N-glycan (Asn-297): GlcNAcMan3GlcNAc2
notes: IgG1; also called anti-CD20 GAb110

Kd (FcγRIIIa [7]): 9.33 nM
B8: G1 glycoengineered Rituximab (antibody, human IgG1, kappa)
heavy: not shown
light: B1 light
modifications: homogeneous afucosylated Fc N-glycan (Asn-297): Gal2GlcNAc2Man3GlcNAc2
notes: IgG1; also called anti-CD20 GAb104

Kd (FcγRIIIa [7]): 83.6 nM
B9: G3 glycoengineered Rituximab (antibody, human IgG1, kappa)
heavy: not shown
light: B1 light
modifications: homogeneous afucosylated Fc N-glycan (Asn-297): GlcNAcMan3GlcNAc2
notes: IgG1; also called anti-CD20 GAb109

Kd (FcγRIIIa [7]): 26.2 nM
B10: G9 glycoengineered Rituximab (antibody, human IgG1, kappa)
heavy: not shown
light: B1 light
modifications: homogeneous afucosylated bisected Fc N-glycan (Asn-297): GlcNAc3Man3GlcNAc2
notes: IgG1; bisected glycan; also called anti-CD20 GAb107
